{"source": "paper PMC11741385", "about": "(bioRxiv, 2025)", "proteins": {"B1": {"name": "Candida albicans Pra1 (recombinant, full-length excluding the signal peptide) (natural protein, UniProt P87020 16-299, looked up)", "chain": "APVTVTRFVDASPTGYDWRADWVKGFPIDSSCNATQYNQLSTGLQEAQLLAEHARDHTLRFGSKSPFFRKYFGNETASAEVVGHFDNVVGADKSSILFLCDDLDDKCKNDGWAGYWRGSNHSDQTIICDLSFVTRRYLTQLCSSGYTVSKSKTNIFWAGDLLHRFWHLKSIGQLVIEHYADTYEEVLELAQENSTYAVRNSNSLIYYALDVYAYDVTIPGEGCNGDGTSYKKSDFSSFEDSDSGSDSGASSTASSSHQHTDSNPSATTDANSHCHTHADGEVHC", "modifications": "N-linked glycosylation at Asn48, Asn89, Asn135 and Asn208; three intramolecular disulphide bonds"}}, "biological_target": "the molecule itself", "assay": "cryo-EM structure", "data": [{"protein": "B1", "values": [{"measurement": "stoichiometry N", "value": 6}]}]}
